Reference: IntAct's records for PubMed 10837255

B1: Spindle assembly checkpoint serine/threonine-protein kinase BUB1 (Saccharomyces cerevisiae), P41695 (parent)
chain: MNLDLGSTVRGYESDKDTFPQSKGVSSSQKEQHSQLNQTKIAYEQRLLNDLEDMDDPLDLFLDYMIWISTSYIEVDSESGQEVLRSTMERCLIYIQDMETYRNDPRFLKIWIWYINLFLSNNFHESENTFKYMFNKGIGTKLSLFYEEFSKLLENAQFFLEAKVLLELGAENNCRPYNRLLRSLSNYEDRLREMNIVENQNSVPDSRERLKGRLIYRTAPFFIRKFLTSSLMTDDKENRANLNSNVGVGKSAPNVYQDSIVVADFKSETERLNLNSSKQPSNQRLKNGNKKTSIYADQKQSNNPVYKLINTPGRKPERIVFNFNLIYPENDEEFNTEEILAMIKGLYKVQRRGKKHTEDYTSDKNRKKRKLDVLVERRQDLPSSQPPVVPKSTRIEVFKDDDNPSQSTHHKNTQVQVQTTTSILPLKPVVDGNLAHETPVKPSLTSNASRSPTVTAFSKDAINEVFSMFNQHYSTPGALLDGDDTTTSKFNVFENFTQEFTAKNIEDLTEVKDPKQETVSQQTTSTNETNDRYERLSNSSTRPEKADYMTPIKETTETDVVPIIQTPKEQIRTEDKKSGDNTETQTQLTSTTIQSSPFLTQPEPQAEKLLQTAEHSEKSKEHYPTIIPPFTKIKNQPPVIIENPLSNNLRAKFLSEISPPLFQYNTFYNYNQELKMSSLLKKIHRVSRNENKNPIVDFKKTGDLYCIRGELGEGGYATVYLAESSQGHLRALKVEKPASVWEYYIMSQVEFRLRKSTILKSIINASALHLFLDESYLVLNYASQGTVLDLINLQREKAIDGNGIMDEYLCMFITVELMKVLEKIHEVGIIHGDLKPDNCMIRLEKPGEPLGAHYMRNGEDGWENKGIYLIDFGRSFDMTLLPPGTKFKSNWKADQQDCWEMRAGKPWSYEADYYGLAGVIHSMLFGKFIETIQLQNGRCKLKNPFKRYWKKEIWGVIFDLLLNSGQASNQALPMTEKIVEIRNLIESHLEQHAENHLRNVILSIEEELSHFQYKGKPSRRF
partner: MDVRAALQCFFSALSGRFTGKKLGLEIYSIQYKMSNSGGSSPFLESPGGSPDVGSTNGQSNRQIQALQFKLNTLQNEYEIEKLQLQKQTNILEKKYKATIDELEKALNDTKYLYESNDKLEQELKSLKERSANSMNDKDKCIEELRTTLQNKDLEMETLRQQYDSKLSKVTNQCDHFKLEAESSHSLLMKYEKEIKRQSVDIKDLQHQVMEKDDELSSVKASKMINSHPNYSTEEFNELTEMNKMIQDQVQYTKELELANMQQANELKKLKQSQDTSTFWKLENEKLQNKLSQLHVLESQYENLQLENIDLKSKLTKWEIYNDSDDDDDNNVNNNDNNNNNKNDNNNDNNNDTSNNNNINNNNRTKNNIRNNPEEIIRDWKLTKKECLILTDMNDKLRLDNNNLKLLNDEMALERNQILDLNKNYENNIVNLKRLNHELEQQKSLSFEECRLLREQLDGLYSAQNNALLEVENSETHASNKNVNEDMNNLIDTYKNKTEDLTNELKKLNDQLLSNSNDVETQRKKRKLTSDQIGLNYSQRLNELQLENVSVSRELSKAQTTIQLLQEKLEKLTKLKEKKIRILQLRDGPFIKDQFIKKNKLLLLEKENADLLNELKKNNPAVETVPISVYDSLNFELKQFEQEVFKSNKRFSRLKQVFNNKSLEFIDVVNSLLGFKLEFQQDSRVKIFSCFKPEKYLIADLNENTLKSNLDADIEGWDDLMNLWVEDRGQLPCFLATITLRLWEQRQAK

Variants of: B1
Conditions: with mad1_yeast MAD1, P40957

Variant	effect of a mutation on the interaction
K733R	decreasing interaction
